Source: article PMC4577212, “X-Ray Structure and Mutagenesis Studies of the N-Isopropylammelide Isopropylaminohydrolase, AtzC” (PLoS ONE, 2015)

These substances were tested on Nc1nc(O)nc(O)n1 (assay: purified protein). Conditions: 200 mM sodium phosphate pH 7.5, glycerol, 301 K, 28.0 °C.
Substance “AtzC (N-isopropylammelide isopropylaminohydrolase) (Pseudomonas sp. ADP; D188N)” has a Km of 1900 ± 500 µM.

The substances below were run on T1, Nc1nc(O)nc(O)n1 (assay: purified protein). Conditions: 200 mM sodium phosphate pH 7.5, glycerol, 301 K, 28.0 °C.
T1 construct: full length, N-terminal His-tag (pETCC2, from pET14b), expressed in E. coli BL21(DE3); tag cut with thrombin for crystals; homotetramer ~210 kDa; Zn enzyme
Type: biochemical, Pseudomonas sp. ADP
“AtzC (N-isopropylammelide isopropylaminohydrolase) (Pseudomonas sp. ADP; D188A)” was tested, and the Km was 2200 ± 200 µM, the kcat was 106 ± 11.4 s⁻¹ and the kcat/Km was 49000 M⁻¹ s⁻¹. Work on “AtzC (N-isopropylammelide isopropylaminohydrolase) (Pseudomonas sp. ADP; D303N)” yielded a Km of 6100 ± 600 µM, a kcat of 90.4 ± 8.9 s⁻¹ and a kcat/Km of 15000 M⁻¹ s⁻¹. Substance “AtzC (N-isopropylammelide isopropylaminohydrolase) (Pseudomonas sp. ADP; H219A)” has a Km of 1600 ± 400 µM, a kcat of 16.8 ± 4 s⁻¹ and a kcat/Km of 11000 M⁻¹ s⁻¹. With “AtzC (N-isopropylammelide isopropylaminohydrolase) (Pseudomonas sp. ADP; K65A)” the Km was 6100 ± 600 µM, the kcat was 778 ± 79.7 s⁻¹ and the kcat/Km was 130000 M⁻¹ s⁻¹. Substance “AtzC (N-isopropylammelide isopropylaminohydrolase) (Pseudomonas sp. ADP; K65R)” has a Km of 2400 ± 300 µM, a kcat of 332 ± 34.3 s⁻¹ and a kcat/Km of 140000 M⁻¹ s⁻¹. “AtzC (N-isopropylammelide isopropylaminohydrolase) (Pseudomonas sp. ADP; N304A)” gave a Km of 4200 ± 200 µM, a kcat of 29.3 ± 1.7 s⁻¹ and a kcat/Km of 7000 M⁻¹ s⁻¹. “AtzC (N-isopropylammelide isopropylaminohydrolase) (Pseudomonas sp. ADP; N304D)” showed a Km of 25000 ± 4500 µM, a kcat of 189 ± 34 s⁻¹ and a kcat/Km of 7600 M⁻¹ s⁻¹. “AtzC (N-isopropylammelide isopropylaminohydrolase) (Pseudomonas sp. ADP; Q160A)” gave a Km of 1800 ± 300 µM, a kcat of 23 ± 3.5 s⁻¹ and a kcat/Km of 13000 M⁻¹ s⁻¹. “AtzC (N-isopropylammelide isopropylaminohydrolase) (Pseudomonas sp. ADP; Q160E)” showed a Km of 1300 ± 100 µM, a kcat of 10.4 ± 0.5 s⁻¹ and a kcat/Km of 8100 M⁻¹ s⁻¹.
